In PMC10168401 (bioRxiv, 2023):

B1: CC25.4 Fab with the VSRRLP elbow variant (for crystallization) (Fab, V domains shown)
VH: QVQLVQSGAEVKKPGASVKVSCKASGYTFTDYFLHWVRQAPGQGLEWMGWINPDSGGTNYAQRFQGRVTMTRDTSISTAYMEVSRLRSDDTAVYYCARDNERYQMQNYYHYYGMDVWGQGTTVTVVS
VL: not shown
B2: CC25.56 Fab with the […] elbow variant (for crystallization) (Fab, V domains shown)
VH: EVQLVQSGAEVKKPGESLKISCKGSGYTFTRHWIGWVRQMPGKGLEWMGVIYPGDSDTRYSPSFQGQVTVSADKSISTAYLQWSSLKASDTAMYFCARGGIAVASGAFDIWGQGTMVTVFN
VL: QSALTQPPSVSVAPGKTARITCGGNNIGSKSVHWYQQKAGQAPVVVIYYPSDRPSGIPERFSGSNSENTATLTISGVEAGDEADYYCQLWDTNSDHWVFGGGTKLTVL
B3: CC25.43 Fab with the […] elbow mutation and a shortened kappa FG loop (for crystallization) (Fab, V domains shown)
VH: EVQLVESGGGLVQPGGSLKLSCSASGFTLSDSAMHWVRQASGKGLEWVGRISSNVNNDATVYAASLKGRFTISRDESKNMAYLQMNSLKNEDTAVYYCTVVPVLEYYQYGMDVWGQGTTVTIFN
VL: DIQLTQSPSTLSASVGDRVIITCRASQSISTWLAWYQQRPGQAPKLLIYKASILQSGVPPRFSGSGSGTDFTLTISRLQPDDFATYYCQQYDSDSQPLTFGGGTKLEIK

Target: SARS-CoV-2 spike receptor-binding domain (RBD), wild type, residues 333-529 (SARS-CoV-2 Wuhan-Hu-1 (wild type), UniProt P0DTC2)
Assay: crystal structure

Binder	binding result
B1	binds
B2	binds
B3	binds
